Measurements from PMC6542941.
Where a chain is given by its changes, count along the chain named.

What was measured:
[1] = target: T1, human acid-sensing ion channel 1a variant hASIC1a-D212 (human) (UniProt P78348)
T1 sequence: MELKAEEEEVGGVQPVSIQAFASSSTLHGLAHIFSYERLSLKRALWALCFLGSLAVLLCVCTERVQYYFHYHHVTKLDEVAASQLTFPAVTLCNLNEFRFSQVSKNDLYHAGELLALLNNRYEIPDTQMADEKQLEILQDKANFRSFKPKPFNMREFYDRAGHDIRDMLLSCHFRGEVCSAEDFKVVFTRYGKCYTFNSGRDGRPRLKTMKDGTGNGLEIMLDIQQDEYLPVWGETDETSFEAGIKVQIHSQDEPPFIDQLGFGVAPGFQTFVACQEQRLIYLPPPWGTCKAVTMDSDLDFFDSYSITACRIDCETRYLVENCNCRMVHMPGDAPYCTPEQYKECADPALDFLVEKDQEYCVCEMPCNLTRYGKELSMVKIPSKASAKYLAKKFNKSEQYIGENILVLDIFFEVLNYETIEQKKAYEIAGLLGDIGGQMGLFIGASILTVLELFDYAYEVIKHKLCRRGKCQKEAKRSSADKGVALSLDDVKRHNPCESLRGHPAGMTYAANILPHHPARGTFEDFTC

[2] = target: T2, human acid-sensing ion channel 1a wild type hASIC1a-G212 (human) (UniProt P78348)
T2 sequence: T1 sequence with D212G

[3] = target: human ASIC2a (human) (UniProt Q16515)
Chain of UniProt Q16515 (Q16515 whole entry): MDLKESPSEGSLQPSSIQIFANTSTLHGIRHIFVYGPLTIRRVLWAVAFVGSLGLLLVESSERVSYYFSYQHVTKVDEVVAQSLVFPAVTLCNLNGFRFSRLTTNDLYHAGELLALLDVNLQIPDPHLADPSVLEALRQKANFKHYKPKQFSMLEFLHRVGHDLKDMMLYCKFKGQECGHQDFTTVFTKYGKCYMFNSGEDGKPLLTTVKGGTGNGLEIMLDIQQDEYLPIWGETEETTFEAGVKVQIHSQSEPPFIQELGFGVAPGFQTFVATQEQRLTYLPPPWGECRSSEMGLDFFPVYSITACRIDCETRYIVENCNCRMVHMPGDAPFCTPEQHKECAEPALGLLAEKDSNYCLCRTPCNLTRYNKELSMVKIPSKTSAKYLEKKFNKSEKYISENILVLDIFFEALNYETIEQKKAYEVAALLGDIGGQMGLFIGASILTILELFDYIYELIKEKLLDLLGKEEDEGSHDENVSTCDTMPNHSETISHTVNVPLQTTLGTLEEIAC

For “Psalmotoxin1 (from UniProt P60514 1-40) (peptide)”, the IC50 of inhibition of the pH5.0-induced current, whole-cell patch-clamp of CHO cells; PcTx1 pre-applied 60 s in the conditioning pH 7.4 solution [1] was 1.19 nM and the IC50 of inhibition of the pH5.0-induced current, whole-cell patch-clamp of CHO cells; PcTx1 pre-applied 60 s in the conditioning pH 7.4 solution [2] was 1.83 nM.

B1: Mambalgin1 (peptide)
chain: LKCYQHGKVVTCHRDMKFCYHNTGMPFRNLKLILQGCSSSCSETENNKCCSTDRCNK
B1 gave an IC50 of inhibition of the pH5.0-induced current, whole-cell patch-clamp of CHO cells; Mambalgin1 pre-applied 60 s in the conditioning pH 7.4 solution [1] of 21.7 nM and an IC50 of inhibition of the pH5.0-induced current, whole-cell patch-clamp of CHO cells; Mambalgin1 pre-applied 60 s in the conditioning pH 7.4 solution [2] of 10.5 nM.

B2: human acid-sensing ion channel 1a variant hASIC1a-D212 (receptor)
chain: T1 sequence
In the case of B2, the IpH5.8/IpH4.0 current ratio of co-transfected CHO cells, whole-cell patch-clamp [3] is reported as 0.43.

B3: human acid-sensing ion channel 1a wild type hASIC1a-G212 (receptor)
chain: T1 sequence with D212G
B3 was tested, and the IpH5.8/IpH4.0 current ratio of co-transfected CHO cells, whole-cell patch-clamp [3] was 0.41.
